According to the supplement of paper PMC10065799, “High-throughput profiling of sequence recognition by tyrosine kinases and SH2 domains using bacterial peptide display” (eLife, 2023):

The sequences below were run against Fes (UniProt P07332) (assay: phosphorylation enrichment, bacterial display (enrichment ratio); higher = better substrate or ligand; peptides without Tyr show the background).
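For SH2 binding enrichment of the phosphorylated peptide, bacterial display in this document: peptide library displayed on the E. coli surface as eCPX fusions, selected cells deep-sequenced, score is each peptide's frequency after selection divided by its frequency in the input.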
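For phosphorylation enrichment, bacterial display in this document: 11-residue human phosphosite peptides and single-mutation variants displayed on the E. coli surface, counted by deep sequencing, each peptide's frequency after selection divided by its frequency in the unselected input library; frequency after pTyr selection over input frequency; kinase dosed for 20-30% of maximal phosphorylation in three min.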

Sequence of Fes (P07332 whole entry, looked up, the tested form may be a part): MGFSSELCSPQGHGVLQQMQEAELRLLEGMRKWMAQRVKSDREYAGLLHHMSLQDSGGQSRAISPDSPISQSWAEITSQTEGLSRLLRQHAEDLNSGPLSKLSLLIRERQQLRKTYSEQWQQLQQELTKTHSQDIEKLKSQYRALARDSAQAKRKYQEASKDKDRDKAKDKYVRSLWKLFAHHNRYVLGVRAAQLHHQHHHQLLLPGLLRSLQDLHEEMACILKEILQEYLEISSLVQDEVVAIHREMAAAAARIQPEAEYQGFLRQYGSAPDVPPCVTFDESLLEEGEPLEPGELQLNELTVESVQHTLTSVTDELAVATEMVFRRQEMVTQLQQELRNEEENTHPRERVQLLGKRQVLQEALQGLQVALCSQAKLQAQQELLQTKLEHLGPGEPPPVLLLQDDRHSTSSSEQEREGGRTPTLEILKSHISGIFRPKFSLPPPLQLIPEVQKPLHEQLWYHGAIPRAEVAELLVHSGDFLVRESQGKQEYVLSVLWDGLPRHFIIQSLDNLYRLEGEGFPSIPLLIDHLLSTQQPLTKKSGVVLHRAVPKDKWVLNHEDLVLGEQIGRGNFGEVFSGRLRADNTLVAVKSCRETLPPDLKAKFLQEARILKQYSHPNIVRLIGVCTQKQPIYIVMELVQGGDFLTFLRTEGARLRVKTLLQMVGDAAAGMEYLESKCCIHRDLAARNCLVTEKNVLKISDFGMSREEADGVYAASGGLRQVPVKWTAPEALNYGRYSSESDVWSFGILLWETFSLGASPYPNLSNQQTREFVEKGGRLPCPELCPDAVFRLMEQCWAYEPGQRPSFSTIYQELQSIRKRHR

Row | Sequence | phosphorylation enrichment
1 | SEKVVYRRFTE [NCF1_Y41] | 0.671
2 | CTTIHFNFMCN [TP53_Y234_Y234F_YF] | 1.31
3 | IMITDYLLLFR [INSR_Y87] | 1.18
4 | MSSAGYRAAEG [COL6A3_Y543_T538M] | 0.495
5 | NKEAICSGFIR [SMCHD1_Y283_Y283C_YF] | 0.952
6 | CTTIRYNYMCN [TP53_Y234_H233R] | 0.81
7 | YRVDCYKNFVA [FHL1_Y213_C209R] | 1.22
8 | IFGASYVPFAA [RBM47_Y541_YF] | 0.783
9 | VNYGAYINYFK [GLB1_Y488_D491Y] | 1.06
10 | GRRNTYYASIA [ACADM_Y352] | 0.849
11 | RRIHSHRGHLW [VHL_Y112_Y112H] | 1.01
12 | SCRENYSFSEE [LEMD3_Y258_D260Y_YF] | 1.08
13 | YADGVYQALEE [DUOX2_Y70] | 1.38
14 | LENSTYQFICV [CRB1_Y760_R764C_YF] | 1.79
15 | SSMIDYKPLEK [MYOC_Y479_N480K] | 0.538
16 | QRALLYEDTLF [UNC13D_Y56_A59T_YF] | 4.74
17 | GRDQPYSGTGD [TYRO3_Y828_A831T] | 0.757

Row | Sequence | phosphorylation enrichment
18 | ISDEAYVMAGV [ERBB2_Y772_L768S] | 0.81
19 | TSIGNYFKPWF [DHCR24_Y299_N294T_YF] | 0.778
20 | EARRVYGDIIF [ALDH5A1_Y175_H180Y_YF] | 0.897
21 | YKIYLYTLNDN [FN1_Y1975] | 1.52
22 | EATKGYLDDPT [G6PD_Y322] | 1.03
23 | ALAAPYVLFPG [CEFIP_Y1332_YF] | 0.726
24 | SNFRAYATEPQ [TNNI3_Y29_H34Q_YF] | 0.869
25 | ALADKYHGGGG [HBB_Y146_H144D] | 0.517
26 | ARAGEYGAEAL [HBA1_Y25_H21R] | 0.829
27 | FVGGFYGGCNE [CTSC_Y352_YF] | 1.42
28 | FAADFYKLLGN [ROR2_Y646_YF] | 1.01
29 | LLIMEYAKYGS [RET_Y806_V804M] | 1.81
30 | MGRVNYGAFIN [GLB1_Y485_YF] | 0.707
31 | GADDSYYTARS [ZAP70_Y492] | 1.05
32 | STTIHYNFMCN [TP53_Y234_C229S_YF] | 1.19
33 | MMVGAYSTLEG [ECPAS_Y470] | 0.839

These sequences were tested against Grb2 SH2 (UniProt P62993) (assay: SH2 binding enrichment of the phosphorylated peptide, bacterial display (enrichment ratio); higher = better substrate or ligand; peptides without Tyr show the background).
Sequence of Grb2 SH2 (P62993 whole entry, looked up): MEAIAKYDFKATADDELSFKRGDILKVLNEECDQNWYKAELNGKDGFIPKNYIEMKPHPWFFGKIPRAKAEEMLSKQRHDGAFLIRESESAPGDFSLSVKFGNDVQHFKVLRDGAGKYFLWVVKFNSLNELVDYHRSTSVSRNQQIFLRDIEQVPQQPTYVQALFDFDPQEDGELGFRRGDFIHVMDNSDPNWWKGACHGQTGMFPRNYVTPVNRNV

Row | Sequence | SH2 binding enrichment
34 | SEKVVYRRFTE [NCF1_Y41] | 0.752
35 | CTTIHFNFMCN [TP53_Y234_Y234F_YF] | 2.01
36 | IMITDYLLLFR [INSR_Y87] | 1.38
37 | MSSAGYRAAEG [COL6A3_Y543_T538M] | 0.788
38 | NKEAICSGFIR [SMCHD1_Y283_Y283C_YF] | 0.827
39 | CTTIRYNYMCN [TP53_Y234_H233R] | 1.48
40 | YRVDCYKNFVA [FHL1_Y213_C209R] | 1.51
41 | IFGASYVPFAA [RBM47_Y541_YF] | 0.889
42 | VNYGAYINYFK [GLB1_Y488_D491Y] | 3.13
43 | GRRNTYYASIA [ACADM_Y352] | 0.779
44 | RRIHSHRGHLW [VHL_Y112_Y112H] | 0.906
45 | SCRENYSFSEE [LEMD3_Y258_D260Y_YF] | 1.05
46 | YADGVYQALEE [DUOX2_Y70] | 0.806
47 | LENSTYQFICV [CRB1_Y760_R764C_YF] | 0.9
48 | SSMIDYKPLEK [MYOC_Y479_N480K] | 1.19
49 | QRALLYEDTLF [UNC13D_Y56_A59T_YF] | 0.739
50 | GRDQPYSGTGD [TYRO3_Y828_A831T] | 1.02

Row | Sequence | SH2 binding enrichment
51 | ISDEAYVMAGV [ERBB2_Y772_L768S] | 0.811
52 | TSIGNYFKPWF [DHCR24_Y299_N294T_YF] | 0.907
53 | EARRVYGDIIF [ALDH5A1_Y175_H180Y_YF] | 0.818
54 | YKIYLYTLNDN [FN1_Y1975] | 0.794
55 | EATKGYLDDPT [G6PD_Y322] | 0.785
56 | ALAAPYVLFPG [CEFIP_Y1332_YF] | 0.839
57 | SNFRAYATEPQ [TNNI3_Y29_H34Q_YF] | 0.806
58 | ALADKYHGGGG [HBB_Y146_H144D] | 0.727
59 | ARAGEYGAEAL [HBA1_Y25_H21R] | 0.923
60 | FVGGFYGGCNE [CTSC_Y352_YF] | 0.895
61 | FAADFYKLLGN [ROR2_Y646_YF] | 0.849
62 | LLIMEYAKYGS [RET_Y806_V804M] | 1.41
63 | MGRVNYGAFIN [GLB1_Y485_YF] | 0.903
64 | GADDSYYTARS [ZAP70_Y492] | 0.816
65 | STTIHYNFMCN [TP53_Y234_C229S_YF] | 0.788
66 | MMVGAYSTLEG [ECPAS_Y470] | 0.777
